The supplement of paper PMC11246515
± gives the standard deviation of the averaged measurements.

Assay: total protein half-life in vivo (active degradation + dilution); higher = more stable protein
[1] = E. coli NCM3722 delta-clpP delta-lon delta-hslV, growth: N-lim chemostat, doubling time 6 h
[2] = E. coli NCM3722 delta-clpP, growth: N-lim chemostat, doubling time 6 h
[3] = E. coli NCM3722 delta-hslV, growth: N-lim chemostat, doubling time 6 h
[4] = E. coli NCM3722 delta-lon, growth: N-lim chemostat, doubling time 6 h
[5] = E. coli NCM3722 delta-smpB, growth: N-lim chemostat, doubling time 6 h
[6] = wild type E. coli NCM3722, growth: C-lim chemostat, doubling time 6 h
[7] = wild type E. coli NCM3722, growth: C-lim chemostat, doubling time 12 h
[8] = wild type E. coli NCM3722, growth: N-lim chemostat, doubling time 12 h
[9] = wild type E. coli NCM3722, growth: P-lim chemostat, doubling time 6 h
[10] = wild type E. coli NCM3722, growth: P-lim chemostat, doubling time 12 h
[11] = wild type E. coli NCM3722, growth: C-lim chemostat, doubling time 3 h
[12] = wild type E. coli NCM3722, growth: N-lim chemostat, doubling time 6 h

Sequence: MKPMHIAMALLSAAMFFVLAGVFMGVQLELDGTKLVVDTASDVRWQWVFIGTAVVFFFQLLRPAFQKGLKSVSGPKFILPAIDGSTVKQKLFLVALLVLAVAWPFMVSRGTVDIATLTMIYIILGLGLNVVVGLSGLLVLGYGGFYAIGAYTFALLNHYYGLGFWTCLPIAGLMAAAAGFLLGFPVLRLRGDYLAIVTLGFGEIVRILLLNNTEITGGPNGISQIPKPTLFGLEFSRTAREGGWDTFSNFFGLKYDPSDRVIFLYLVALLLVVLSLFVINRLLRMPLGRAWEALREDEIACRSLGLSPRRIKLTAFTISAAFAGFAGTLFAARQGFVSPESFTFAESAFVLAIVVLGGMGSQFAVILAAILLVVSRELMRDFNEYSMLMLGGLMVLMMIWRPQGLLPMTRPQLKLKNGAAKGEQA
- total protein half-life in vivo [1]: 5.59 ± 2.4 h
- total protein half-life in vivo [2]: 6.22 h
- total protein half-life in vivo [3]: 5.84 ± 0.34 h
- total protein half-life in vivo [4]: 5.83 ± 1.7 h
- total protein half-life in vivo [5]: 5.92 ± 1.1 h
- total protein half-life in vivo [6]: 5.79 ± 0.64 h
- total protein half-life in vivo [7]: 10.7 ± 1.2 h
- total protein half-life in vivo [8]: 12.2 h
- total protein half-life in vivo [9]: 6.09 ± 0.58 h
- total protein half-life in vivo [10]: 10.7 ± 0.3 h

Sequence: MKPTTLLLIFTFFAMPGIVYAESPFSSLQSAKEKTTVLQDLRKICTPQASLSDEAWEKLMLSDENNKQHIREAIVAMERNNQSNYWEALGKVECPDM [Q2M7X4]
- total protein half-life in vivo [1]: 4.53 h

Sequence: MKPVKPPRINGRVPVLSAQEAVNYIPDEATLCVLGAGGGILEATTLITALADKYKQTQTPRNLSIISPTGLGDRADRGISPLAQEGLVKWALCGHWGQSPRISELAEQNKIIAYNYPQGVLTQTLRAAAAHQPGIISDIGIGTFVDPRQQGGKLNEVTKEDLIKLVEFDNKEYLYYKAIAPDIAFIRATTCDSEGYATFEDEVMYLDALVIAQAVHNNGGIVMMQVQKMVKKATLHPKSVRIPGYLVDIVVVDPDQTQLYGGAPVNRFISGDFTLDDSTKLSLPLNQRKLVARRALFEMRKGAVGNVGVGIADGIGLVAREEGCADDFILTVETGPIGGITSQGIAFGANVNTRAILDMTSQFDFYHGGGLDVCYLSFAEVDQHGNVGVHKFNGKIMGTGGFIDISATSKKIIFCGTLTAGSLKTEITDGKLNIVQEGRVKKFIRELPEITFSGKIALERGLDVRYITERAVFTLKEDGLHLIEIAPGVDLQKDILDKMDFTPVISPELKLMDERLFIDAAMGFVLPEAAH
- total protein half-life in vivo [1]: 5.68 ± 0.1 h
- total protein half-life in vivo [2]: 4.03 ± 0.058 h
- total protein half-life in vivo [3]: 3.94 ± 0.05 h
- total protein half-life in vivo [4]: 4.17 ± 0.1 h
- total protein half-life in vivo [5]: 3.728 ± 0.031 h
- total protein half-life in vivo [11]: 2.75 ± 0.29 h
- total protein half-life in vivo [6]: 5.2 ± 0.61 h
- total protein half-life in vivo [7]: 10.7 ± 1.1 h
- total protein half-life in vivo [12]: 3.81 ± 0.14 h
- total protein half-life in vivo [8]: 6.72 ± 0.91 h
- total protein half-life in vivo [9]: 6.39 ± 0.56 h
- total protein half-life in vivo [10]: 11.1 ± 0.4 h

Sequence: MKPVTLYDVAEYAGVSYQTVSRVVNQASHVSAKTREKVEAAMAELNYIPNRVAQQLAGKQSLLIGVATSSLALHAPSQIVAAIKSRADQLGASVVVSMVERSGVEACKAAVHNLLAQRVSGLIINYPLDDQDAIAVEAACTNVPALFLDVSDQTPINSIIFSHEDGTRLGVEHLVALGHQQIALLAGPLSSVSARLRLAGWHKYLTRNQIQPIAEREGDWSAMSGFQQTMQMLNEGIVPTAMLVANDQMALGAMRAITESGLRVGADISVVGYDDTEDSSCYIPPLTTIKQDFRLLGQTSVDRLLQLSQGQAVKGNQLLPVSLVKRKTTLAPNTQTASPRALADSLMQLARQVSRLESGQ
- total protein half-life in vivo [1]: 5.83 ± 0.72 h
- total protein half-life in vivo [2]: 5.64 ± 0.41 h
- total protein half-life in vivo [3]: 4.55 ± 0.067 h
- total protein half-life in vivo [4]: 4.85 ± 0.15 h
- total protein half-life in vivo [5]: 4.13 ± 0.042 h
- total protein half-life in vivo [11]: 2.96 ± 0.24 h
- total protein half-life in vivo [6]: 5.81 ± 0.66 h
- total protein half-life in vivo [7]: 7.63 ± 1.8 h
- total protein half-life in vivo [12]: 5.01 ± 0.34 h
- total protein half-life in vivo [8]: 7.759 ± 0.077 h
- total protein half-life in vivo [9]: 4.77 ± 0.2 h
- total protein half-life in vivo [10]: 10.5 ± 0.49 h

Sequence: MKQATRKPTTPGDILLYEYLEPLDLKINELAELLHVHRNSVSALINNNRKLTTEMAFRLAKVFDTTVDFWLNLQAAVDLWEVENNMRTQEELGRIETVAEYLARREERAKKVA [P0A9T6]
- total protein half-life in vivo [1]: 5.02 ± 0.066 h
- total protein half-life in vivo [2]: 3.95 ± 0.23 h
- total protein half-life in vivo [3]: 0.853 h
- total protein half-life in vivo [4]: 0.94 h
- total protein half-life in vivo [5]: 0.895 ± 0.037 h
- total protein half-life in vivo [11]: 0.871 ± 0.018 h
- total protein half-life in vivo [6]: 0.977 ± 0.032 h
- total protein half-life in vivo [7]: 1.53 h
- total protein half-life in vivo [12]: 1.08 h
- total protein half-life in vivo [8]: 1.08 h
- total protein half-life in vivo [9]: 0.994 ± 0.08 h
- total protein half-life in vivo [10]: 1.7 ± 0.7 h

Sequence: MKQDLARIEQFLDALWLEKNLAENTLNAYRRDLSMMVEWLHHRGLTLATAQSDDLQALLAERLEGGYKATSSARLLSAVRRLFQYLYREKFREDDPSAHLASPKLPQRLPKDLSEAQVERLLQAPLIDQPLELRDKAMLEVLYATGLRVSELVGLTMSDISLRQGVVRVIGKGNKERLVPLGEEAVYWLETYLEHGRPWLLNGVSIDVLFPSQRAQQMTRQTFWHRIKHYAVLAGIDSEKLSPHVLRHAFATHLLNHGADLRVVQMLLGHSDLSTTQIYTHVATERLRQLHQQHHPRA [P0A8P8]
- total protein half-life in vivo [1]: 5.75 ± 1.2 h
- total protein half-life in vivo [2]: 2.02 ± 0.045 h
- total protein half-life in vivo [3]: 2.06 h
- total protein half-life in vivo [4]: 4.89 ± 0.092 h
- total protein half-life in vivo [5]: 2.04 ± 0.034 h
- total protein half-life in vivo [11]: 1.74 ± 0.27 h
- total protein half-life in vivo [6]: 3.04 ± 0.085 h
- total protein half-life in vivo [7]: 4.08 ± 0.66 h
- total protein half-life in vivo [12]: 2.31 ± 0.2 h
- total protein half-life in vivo [8]: 3.34 ± 0.29 h
- total protein half-life in vivo [10]: 2.81 h

Sequence: MKQEVILVLDCGATNVRAIAVNRQGKIVARASTPNASDIAMENNTWHQWSLDAILQRFADCCRQINSELTECHIRGIAVTTFGVDGALVDKQGNLLYPIISWKCPRTAAVMDNIERLISAQRLQAISGVGAFSFNTLYKLVWLKENHPQLLERAHAWLFISSLINHRLTGEFTTDITMAGTSQMLDIQQRDFSPQILQATGIPRRLFPRLVEAGEQIGTLQNSAAAMLGLPVGIPVISAGHDTQFALFGAGAEQNEPVLSSGTWEILMVRSAQVDTSLLSQYAGSTCELDSQAGLYNPGMQWLASGVLEWVRKLFWTAETPWQMLIEEARLIAPGADGVKMQCDLLSCQNAGWQGVTLNTTRGHFYRAALEGLTAQLQRNLQMLEKIGHFKASELLLVGGGSRNTLWNQIKANMLDIPVKVLDDAETTVAGAALFGWYGVGEFNSPEEARAQIHYQYRYFYPQTEPEFIEEV
- total protein half-life in vivo [1]: 5.11 h
- total protein half-life in vivo [2]: 3.99 ± 0.14 h
- total protein half-life in vivo [11]: 0.905 ± 0.18 h
- total protein half-life in vivo [6]: 2.56 h
- total protein half-life in vivo [7]: 1.49 h
